Patent publication US20250197448A1 (UNIVERSITY OF ROCHESTER, published 2025)
Starred links: 1 amine or outer side, 2 acyl side, 3 side chain; linkers in the order of their positions; H or OH if unused. Positions of bridges follow the written chain, without caps; N, C: chain ends. Non-standard residues stand in square brackets, D forms with d. Primed or numbered codes have the meaning given here. No end group written: not given here. O2beY = O-(2-bromoethyl)-tyrosine (p-2beF), reacts with Cys to form a thioether, O=C([C@H](Cc1ccc(OCCBr)cc1)N[*:1])[*:2]; pCaaF″ = p-(2-chloro-acetamido)-phenylalanine, thioether-linked to Cys, O=C(C[*:3])Nc1ccc(C[C@H](N[*:1])C(=O)[*:2])cc1; pCaaF = p-(2-chloroacetamido)-phenylalanine, O=C(CCl)Nc1ccc(C[C@H](N[*:1])C(=O)[*:2])cc1

Legend:
[1] = molecular target: T1, Kelch-like ECH-associated protein 1 (Keap1) (human, UniProt Q14145 321-609, limits assumed); assay: plate binding assay with immobilised Keap1
T1 sequence (Q14145 321-609 limits assumed): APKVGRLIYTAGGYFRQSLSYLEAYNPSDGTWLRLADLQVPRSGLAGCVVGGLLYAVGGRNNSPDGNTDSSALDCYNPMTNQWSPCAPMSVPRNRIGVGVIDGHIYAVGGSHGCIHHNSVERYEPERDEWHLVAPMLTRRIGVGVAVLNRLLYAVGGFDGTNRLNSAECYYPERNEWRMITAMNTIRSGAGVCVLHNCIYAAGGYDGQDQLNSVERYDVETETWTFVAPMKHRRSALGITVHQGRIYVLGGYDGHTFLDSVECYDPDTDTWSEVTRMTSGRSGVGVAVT
Experimental: Keap1 Binding Assay. For the Keap1 binding assay, Keap1 was immobilized on microtiter plates by incubating 100 μL of a 4 μM protein solution in PBS buffer overnight at 4° C., followed by washing (3×150 μL of PBS with 0.5% Tween-20) and blocking with 0.5% bovine serum albumin in PBS for 1.5 h at room temperature. After washing, each well was incubated with 100 μL of purified FLAG-tagged peptide at varying concentrations for 1 hour at room temperature. After washing three times with wash buffer, each well was incubated with 100 μL of 1:2500 dilution of HRP-conjugate mouse anti-FLAG polyclonal antibody (Sigma-Aldrich) for 1 hour at room temperature. After three washing steps with wash buffer, 100 μL of 2.2 mM o-phenylenediamine dihydrochloride, 4.2 mM urea hydrogen peroxide, 100 mM dibasic sodium phosphate, and 50 mM sodium citrate, pH 5.0, were added to each well, followed by measurement of the absorbance at 450 nm after 10-20 min using a Tecan Infinite 1000 plate reader. Equilibrium dissociation constants (KD) were determined by fitting the dose-response curves to a 1:1 binding isotherm equation via nonlinear regression using SigmaPlot. Mean values and standard deviations were calculated from experiments performed in triplicate. […]

[2] = molecular target: T1, Kelch-like ECH-associated protein 1 …; assay: plate binding assay: immobilised Keap1, FLAG-tagged binder titrated, HRP anti-FLAG detection, 1:1 isotherm fit
Experimental: (§1) Streptavidin Binding Assay. For the streptavidin binding assays, streptavidin-coated plates (Sigma-Aldrich) were used. For the Keap1, Shh and PD-L1 binding assay, target protein was immobilized on microtiter plates by incubating 100 μL of a 4 μM protein solution in PBS buffer overnight at 4° C., followed by decanting the protein solution and blocking with 0.5% bovine serum albumin in PBS for 2 h at room temperature. After washing (3×150 μL of PBS with 0.05% Tween-20), each well was incubated with 100 μL of purified FLAG-tagged cyclopeptibody at varying concentrations for 1 hour at room temperature. After washing three times with wash buffer, each well was incubated with 100 μL of 1:2500 dilution of HRP-conjugate mouse anti-FLAG polyclonal antibody (Sigma-Aldrich) for 1 hour at room temperature. After washing three times with wash buffer, 100 μL of 2.2 mM o-phenylenediamine dihydrochloride, 4.2 mM urea hydrogen peroxide, 100 mM dibasic sodium phosphate, and 50 mM sodium citrate, pH 5.0, were added to each well, followed by measurement of the absorbance at 450 nm after 10-20 min using a Tecan Infinite 1000 plate reader. Equilibrium dissociation constants (Kp) were determined by fitting the dose-response curves to a 1:1 binding isotherm equation via nonlinear regression. using SigmaPlot. Mean values and standard deviations were calculated from experiments performed in triplicate.

streptavidin [3] = molecular target: T2, streptavidin (UniProt P22629 37-163, limits assumed); assay: plate binding assay: streptavidin-coated plate, FLAG-tagged binder titrated, HRP anti-FLAG detection, 1:1 isotherm fit
T2 sequence (P22629 37-163 limits assumed): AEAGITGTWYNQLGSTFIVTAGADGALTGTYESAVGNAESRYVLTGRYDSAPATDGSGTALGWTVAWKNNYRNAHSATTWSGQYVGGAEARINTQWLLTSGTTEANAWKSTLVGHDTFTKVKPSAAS
Description: The resulting cyclopeptibody (called Strep-m3-Tras-Fc) was expressed, purified, and characterized as described in Example 4. This construct was confirmed to contain the cyclic peptide constrained via O2beY/Cys thioether (i/i-8) linkage, where ‘i’ indicates the position of the non-canonical amino acid O2beY (also refereed to herein as p-2beF). The cyclopeptibody Strep-m3-Tras-Fc was then characterized for its streptavidin binding affinity using a reported in vitro binding assay (Owens et al, ACS Cent Sci. (2020); 6(3):368-381).
Streptavidin Binding Assay. For the streptavidin binding assays, streptavidin-coated plates (Sigma-Aldrich) were used. […] After washing three times with wash buffer, 100 μL of 2.2 mM o-phenylenediamine dihydrochloride, 4.2 mM urea hydrogen peroxide, 100 mM dibasic sodium phosphate, and 50 mM sodium citrate, pH 5.0, were added to each well, followed by measurement of the absorbance at 450 nm after 10-20 min using a Tecan Infinite 1000 plate reader. Equilibrium dissociation constants (Kp) were determined by fitting the dose-response curves to a 1:1 binding isotherm equation via nonlinear regression. using SigmaPlot. Mean values and standard deviations were calculated from experiments performed in triplicate.

[4] = molecular target: T3, PD-L1 (Programmed Death-Ligand 1), recombinant, His-tagged (human, UniProt Q9NZQ7 18-134, limits assumed); assay: competition assay: plate-immobilised PD-L1, competitor biotinylated PD-1 (500 nM), bound PD-1 read with HRP-streptavidin
T3 construct: Immobilised on microtiter plates
T3 sequence (Q9NZQ7 18-134 limits assumed): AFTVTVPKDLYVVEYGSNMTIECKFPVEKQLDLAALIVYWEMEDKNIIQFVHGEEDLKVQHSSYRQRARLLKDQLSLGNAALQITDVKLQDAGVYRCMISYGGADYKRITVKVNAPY
Experimental: as §1, with “After washing three times with wash buffer, each well was incubated with 100 μL of 1:2500 dilution of HRP-conjugate mouse anti-FLAG polyclonal antibody (Sigma-Aldrich) for 1 hour at room temperature.” left out
PD-L1 Competition Assay. […] After washing, the bound PD-1 was quantified by means of HRP-conjugate Streptavidin and colorimetric assay as described above. […]

[5] = molecular target: T3, PD-L1 (Programmed Death-Ligand 1), …; assay: plate binding assay with immobilised PD-L1
Experimental: as §1, with “After” for “Streptavidin Binding Assay. For the streptavidin binding assays, streptavidin-coated plates (Sigma-Aldrich) were used. For the Keap1, Shh and PD-L1 binding assay, target protein was immobilized on microtiter plates by incubating 100 μL of a 4 μM protein solution in PBS buffer overnight at 4° C., followed by decanting the protein solution and blocking with 0.5% bovine serum albumin in PBS for 2 h at room temperature. After”
To illustrate this aspect of the invention, a series of PD-L1 targeting cyclopeptibodies were prepared by introducing variable spacer sequences between the cyclic peptide and Fc domain in the PD-L1-targeting cyclopeptibody cRK10-Tras-Fc (Table 1, Entries 31-34; FIG. 20). The spacer sequences included a more flexible (-GSGSGS-), more rigid (-PAPAP-; -EAAAK-) or longer linker (Q12) compared to the exa-glutamine (Q6) spacer sequence in cyclopeptibody cRK10-Tras-Fc.

[6] = molecular target: T4, PD-L1 on the surface of MDA-MB-231 breast cancer cells (human, UniProt Q9NZQ7 19-290); assay: flow cytometry on MDA-MB-231 cells, 0.09 mg/ml, FITC anti-human IgG Fc secondary
T4 construct: whole, on cells; also called PD-L1 receptor on the cancer cells
T4 sequence (Q9NZQ7 19-290): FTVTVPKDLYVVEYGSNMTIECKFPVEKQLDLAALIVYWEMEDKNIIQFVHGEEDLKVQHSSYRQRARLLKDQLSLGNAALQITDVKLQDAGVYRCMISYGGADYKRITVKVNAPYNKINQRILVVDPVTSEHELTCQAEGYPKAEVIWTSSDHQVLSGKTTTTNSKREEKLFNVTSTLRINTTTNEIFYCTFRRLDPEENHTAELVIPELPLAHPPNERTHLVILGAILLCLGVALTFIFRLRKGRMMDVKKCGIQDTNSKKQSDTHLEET
Experimental: The cells were then incubated with fluorescein-conjugated anti-human IgG Fc antibody and analyzed by flow cytometry. The same experiment was carried out in parallel using commercially available anti-PD-L1 antibody as positive control and various negative controls. […] Several applications for these compounds can be easily envisioned, including detection and/or staining of PD-L1 in vitro and in vivo (e.g., upon conjugation of the cyclopeptibody with a fluorescent dye, IR probe, or PET contrast agent), cell-targeted drug delivery (e.g., upon conjugation of the PD-L1-binding cyclopeptibody with a drug cargo), and use as therapeutic agents in cancer immunotherapy, among others.

[7] = molecular target: T3, PD-L1 (Programmed Death-Ligand 1), …; assay: plate binding assay: immobilised PD-L1, FLAG-tagged binder titrated, HRP anti-FLAG detection
Experimental: as §1

streptavidin [8] = molecular target: T2, streptavidin; assay: plate binding assay on streptavidin-coated plates
Sonic Hedgehog (Shh) = Sonic Hedgehog (Shh) (human, UniProt Q15465 24-197, limits assumed); assay: plate binding assay: immobilised Shh, FLAG-tagged binder titrated, HRP anti-FLAG detection

B1: KKD-m1-Tras-Fc (Fc fusion)
chain: DYKDDDDKGSGS[O2beY]DSETGECQQQQQQ-{Fc-H6}
modifications: thioether 13-20; also: dimeric through the Fc
notes: Cyclic peptide fused through a (Gln)6 spacer to human IgG1 Fc; dimeric through the Fc; made in E. coli; also called FLAG-(GS)2-ZDSETGEC-(Q)6-(Fc)^1-H6
[1]
  fold improved affinity against the same cyclic peptide fused to CBD: > 20 fold
[2]
  Kd: 4 nM

## SCWWHPQGD[O2beY] (thioether 2-10; also: as CBD fusion) [cyclic peptide Strep-m3 alone (as CBD fusion)]
Streptavidin [3]
  Kd: 50 nM

B2: cCLP003 (pCaaF)-Tras-Fc (Fc fusion)
chain: DYKDDDDKGSGSWHFS[pCaaF]NWRWLPCQQQQQQ
modifications: thioether 17-24 (inferred); not fully specified (C-terminus)
notes: also called cCLP003-Tras-Fc; cCLP003-Tras-Fc-His
[4]
  IC50: 6000 nM
[5]
  fold increase in affinity against the cyclic peptide alone: 40 fold
[6]
  fold higher MFI against cRK10-Tras-Fc: 4 fold
[7]
  Kd: ~250 nM

## WHFS[pCaaF″]NWRWLPC (thioether 5-12; not fully specified) [cyclic peptide cCLP003 (pCaaF)]
[5]
  Kd: ~10000 nM
  fold higher affinity against the linear CLP003 peptide: ~40 fold

B3: FLAG-cRK10-Q12-Tras-Fc-His (Fc fusion)
chain: DYKDDDDKGSGSTYLCGAISLA[pCaaF]KAQIKESLQQQQQQQQQQQQ-{Fc-H6}
modifications: thioether 16-23
notes: Spacer variant of cRK10-Tras-Fc (Q12); also called FLAG-(GS)2-TYLCGAISLAZKAQIKESL-(Q)12-(Fc)^1-H6
[5]
  Kd: 237 nM

B4: Strep-m3-Tras-Fc (Fc fusion)
chain: DYKDDDDKGSGSSCWWHPQGD[O2beY]QQQQQQ-{Fc-H6}
modifications: thioether 14-22; also: dimeric through the Fc
notes: Cyclic peptide fused through a (Gln)6 spacer to human IgG1 Fc; dimeric through the Fc; made in E. coli; also called FLAG-(GS)2-SCWWHPQGDZ-(Q)6-(Fc)^1-H6
Streptavidin [3]
  Kd: 37 nM
Streptavidin [8]
  fold improved affinity against the same cyclic peptide fused to CBD: 1.3 fold

B5: FLAG-Strep-m3-Strep-m3-Tras-Fc-His (Fc fusion)
chain: DYKDDDDKGSGSSCWWHPQGD[O2beY]GSGSENLYFQGSGSSCWWHPQGD[O2beY]IEGRGSGS-{Fc-His}
modifications: thioether 14-22, 38-46; not fully specified; also: second O2beY at Y30, thioether-linked to Cys of its own cyclic peptide
notes: Two copies of the Strep-m3 cyclic peptide in tandem on each Fc chain; also called polyvalent streptavidin-targeting cyclopeptibody
Streptavidin [8]
  Kd: 56 nM

B6: FLAG-KKD-m1-KKD-m1-Tras-Fc-His (Fc fusion)
chain: DYKDDDDKGSGSYDSETGECGSGSENLYFQGSGSYDSETGECIEGRGSGS
modifications: thioether (positions not given here); not fully specified (residues 13, 35, C-terminus, bridges); also: two O2beY, each thioether-linked to Cys of its own cyclic peptide, places them at C20 and L27
notes: Two copies of the KKD-m1 cyclic peptide in tandem on each Fc chain; also called polyvalent Keap1-targeting cyclopeptibody
[1]
  Kd: 45 nM

## TLSW[O2beY]EAMDMCTSS (thioether 5-11; also: as CBD fusion) [cyclic peptide L2-m5 alone (as CBD fusion)]
Sonic Hedgehog (Shh)
  Kd: 388 nM

B7: cRK10 (pCaaF)-Tras-Fc (Fc fusion)
chain: DYKDDDDKGSGSTYLCGAISLA[pCaaF]KAQIKESLQQQQQQ-{Fc-H6}
modifications: thioether 16-23
notes: also called cRK10-Tras-Fc; RK10-Tras-Fc-His
[5]
  Kd: 42 nM
  fold higher PD-L1 binding affinity against FLAG-cRK10-Q12-Tras-Fc-His: 6 fold
  fold higher binding affinity against the cyclic peptide cRK10: 300 fold
[7]
  Kd: 40 nM

## TYLCGAISLA[pCaaF]KAQIKESL (thioether 4-11) [cyclic peptide cRK10 (pCaaF)]
[5]
  Kd: 13000 nM

## [O2beY]DSETGEC (thioether 1-8; also: as CBD fusion) [cyclic peptide KKD-m1 alone (as CBD fusion)]
[2]
  Kd: 85 nM
